For data set [1], the system named is ZFP-TF 65918.T2A.57890 (two co-expressed ZFPs) (synthetic construct). Description: cell_activity. As to conditions: htau mouse hippocampus, 3E9 VG per hemisphere.
The subject of data set [2] is ZFP-TF 73133 (R→Q variant anti-tau ZFP-KRAB) (synthetic construct). Description: cell_activity. The following applies: up to, htau mouse hippocampus, AAV9 highest dose, 3 and 6 months.

A value given as a limit tells only on which side of the number the result lay.

Among the data in US20230242602 are activity (% reduction of mouse tau mRNA) and activity (% reduction of human tau mRNA) values, retold here.

On to mouse Mapt gene, for which the activity (% reduction of mouse tau mRNA) in data set [1] is > 50.

As for “human MAPT gene target region (around TSS)”, the activity (% reduction of human tau mRNA) is > 50 in data set [1] and 93 in data set [2].
